Data: article PMC5146272, “Structure of the RBM7–ZCCHC8 core of the NEXT complex reveals connections to splicing factors” (Nature Communications, 2016)

T1: RBM7 1-98 (RRM);ZCCHC8Pro (proline-rich segment) (Homo sapiens;Homo sapiens, UniProt Q9Y580;Q6NZY4 1-98;285-324, |)
T1 sequence 1: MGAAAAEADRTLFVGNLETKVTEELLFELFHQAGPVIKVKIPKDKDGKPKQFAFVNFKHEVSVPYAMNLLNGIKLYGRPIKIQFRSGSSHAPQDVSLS
T1 sequence 2: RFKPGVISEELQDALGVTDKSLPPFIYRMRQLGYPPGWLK

T2: RBM7 1-98 (RRM) (Homo sapiens, UniProt Q9Y580 1-98)
T2 sequence: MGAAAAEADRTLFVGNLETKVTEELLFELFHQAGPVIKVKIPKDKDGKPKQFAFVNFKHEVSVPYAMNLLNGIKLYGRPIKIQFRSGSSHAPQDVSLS

T3: RBM7^1–137 (Z-tagged RBM7, residues 1–137) (human, UniProt Q9Y580 1-137)
T3 construct: source: bacterial cells, in lysate (pull-downs); purified (MST)
T3 sequence (looked up): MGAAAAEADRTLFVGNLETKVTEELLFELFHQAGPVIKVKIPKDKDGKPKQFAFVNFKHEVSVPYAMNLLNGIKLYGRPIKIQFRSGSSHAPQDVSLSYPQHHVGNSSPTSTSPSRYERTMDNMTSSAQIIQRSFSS


How the values were obtained:
[1] = biological target: T1, RBM7 1-98 (RRM);ZCCHC8Pro (proline-rich …); experiment: fluorescence anisotropy; affinity stated similar to RBM7 alone; KD value only in figure inset; 20 mM Tris/HCl pH 7.5, 150 mM NaCl, 2 mM DTT, 20 °C, 10 nM RNA, 50 µl; conditions: protein: recombinant;recombinant; tags: ;; copies: 1;1; label: 5'-6-FAM; single strand
RBM7 1-98 (RRM) = biological target: T2, RBM7 1-98 (RRM); experiment: fluorescence anisotropy; KD value only in inset of the figure, not in material; 20 mM Tris/HCl pH 7.5, 150 mM NaCl, 2 mM DTT, 20 °C, 10 nM RNA, 50 µl; conditions: protein: recombinant; label: 5'-6-FAM; single strand
[2] = biological target: T3, RBM7^1–137 (Z-tagged RBM7, residues …); experiment: MST; 30 nM ZCCHC8^Pro-(GS)3-eYFP constant, unlabelled RBM7 1-137 titrated from 0.2 nM to 6.0 μM; 50 mM Tris/HCl pH 7.4, 150 mM NaCl, 10 mM MgCl2, 0.05% Tween 20; temperature jump analysis; triplicates; conditions: both partners purified

Binder	binding result [1]	binding result (RBM7 1-98 (RRM))	Kd [2] [nM]
UUUUUUUU (ssRNA) [U8 RNA]	binds	binds	
RFKPGVISEELQDALGVTDKSLPPFIYRMRQLGYPPGWLK (domain or fragment, human, UniProt Q6NZY4 285-324, looked up, eYFP joined by a Gly-Ser linker serves as the fluorophore of the MST; source: purified; not shown: (GS)3 linker and eYFP, C-terminal, kept) [ZCCHC8^Pro-(GS)3-eYFP fusion protein]			28
